From patent publication US20210230279A1 (University of California, published 2021)
Ends that are not written are not given here.

How the values were obtained:
[1] = biological target: T1, human integrin αvβ8 on CHO cells (human, UniProt P06756 31-1048; P26012 43-769); test: cell adhesion to coated peptide, crystal violet, signal above mock transfected cells (FIG. 25)
T1 construct: also called CHO cells expressing αvβ8; CHO lec cells stably transfected with αvβ8

[2] = biological target: recombinant αvβ8 ectodomain (Homo sapiens (Human), UniProt P06756 31-992; P26012 43-684); test: ELISA, Mab coated at the given concentration, αvβ8 ectodomain 0.5 µg/ml, detected with biotinylated anti-αv 8B8 and SA-HRP; specific binding minus SV5 control
Sequence of recombinant αvβ8 ectodomain (P06756 31-992 limits assumed, chain 1 of 2): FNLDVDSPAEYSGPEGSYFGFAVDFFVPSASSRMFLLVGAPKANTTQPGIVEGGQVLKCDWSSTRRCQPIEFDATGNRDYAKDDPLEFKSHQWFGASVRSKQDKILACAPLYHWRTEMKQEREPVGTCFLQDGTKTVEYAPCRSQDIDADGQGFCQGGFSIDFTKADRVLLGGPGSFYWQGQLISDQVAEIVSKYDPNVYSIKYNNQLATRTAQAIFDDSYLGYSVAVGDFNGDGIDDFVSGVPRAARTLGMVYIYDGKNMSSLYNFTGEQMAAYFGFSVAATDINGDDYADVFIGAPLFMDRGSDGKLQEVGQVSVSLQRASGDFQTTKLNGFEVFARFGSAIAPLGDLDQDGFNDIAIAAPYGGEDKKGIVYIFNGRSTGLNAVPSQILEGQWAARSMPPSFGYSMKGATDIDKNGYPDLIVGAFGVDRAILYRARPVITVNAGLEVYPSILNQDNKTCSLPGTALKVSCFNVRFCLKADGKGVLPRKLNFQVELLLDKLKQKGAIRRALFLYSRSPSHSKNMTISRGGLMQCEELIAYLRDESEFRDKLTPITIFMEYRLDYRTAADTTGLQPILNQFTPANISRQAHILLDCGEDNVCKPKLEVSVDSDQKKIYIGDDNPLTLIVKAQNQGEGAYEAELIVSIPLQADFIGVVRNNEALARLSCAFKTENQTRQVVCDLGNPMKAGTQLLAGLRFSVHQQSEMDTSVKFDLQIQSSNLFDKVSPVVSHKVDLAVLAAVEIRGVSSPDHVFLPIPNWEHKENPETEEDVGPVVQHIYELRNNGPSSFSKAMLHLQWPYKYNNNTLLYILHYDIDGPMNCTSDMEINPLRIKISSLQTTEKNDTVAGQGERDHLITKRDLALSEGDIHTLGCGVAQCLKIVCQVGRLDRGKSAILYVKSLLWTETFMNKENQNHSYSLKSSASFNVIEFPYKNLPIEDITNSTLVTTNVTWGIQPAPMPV
Sequence of recombinant αvβ8 ectodomain (P26012 43-684 limits assumed, chain 2 of 2): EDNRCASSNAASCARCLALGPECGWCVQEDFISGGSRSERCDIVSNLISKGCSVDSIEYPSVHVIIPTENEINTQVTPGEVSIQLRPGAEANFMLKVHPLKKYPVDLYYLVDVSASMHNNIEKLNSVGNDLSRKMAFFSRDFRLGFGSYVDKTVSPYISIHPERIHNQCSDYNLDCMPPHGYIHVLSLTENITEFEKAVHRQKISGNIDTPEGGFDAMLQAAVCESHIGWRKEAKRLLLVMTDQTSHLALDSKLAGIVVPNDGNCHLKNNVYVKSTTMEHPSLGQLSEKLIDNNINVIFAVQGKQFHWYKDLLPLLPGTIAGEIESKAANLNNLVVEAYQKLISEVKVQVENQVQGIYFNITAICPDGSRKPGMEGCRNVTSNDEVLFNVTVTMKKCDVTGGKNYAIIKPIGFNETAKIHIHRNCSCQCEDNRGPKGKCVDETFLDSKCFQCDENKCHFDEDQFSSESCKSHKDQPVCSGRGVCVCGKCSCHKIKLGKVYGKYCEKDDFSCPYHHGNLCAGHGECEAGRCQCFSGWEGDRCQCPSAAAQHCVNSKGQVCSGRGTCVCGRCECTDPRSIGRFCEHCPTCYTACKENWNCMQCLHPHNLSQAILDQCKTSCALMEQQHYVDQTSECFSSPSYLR
Description: As a negative control, some wells were coated with anti-SV5 at the same concentrations. Non-specific binding sites were blocked with BSA.

[3] = biological target: T2, recombinant human integrin αvβ6 (human, UniProt P18564 22-707); test: ELISA, Mab coated at 5 ug/ml, receptor 0.5 µg/ml in Mg buffer (1 mM Ca++ and 1 mM Mg++), detected with biotinylated anti-αv 8B8
T2 construct: also called αvβ6 (R&D systems); αvβ6 receptor
T2 sequence (chain, as listed by the source limits assumed, chain 1 of 2): as the sequence (P06756 31-992 limits assumed, chain 1 of 2) above
T2 sequence (P18564 22-707 limits assumed, chain 2 of 2): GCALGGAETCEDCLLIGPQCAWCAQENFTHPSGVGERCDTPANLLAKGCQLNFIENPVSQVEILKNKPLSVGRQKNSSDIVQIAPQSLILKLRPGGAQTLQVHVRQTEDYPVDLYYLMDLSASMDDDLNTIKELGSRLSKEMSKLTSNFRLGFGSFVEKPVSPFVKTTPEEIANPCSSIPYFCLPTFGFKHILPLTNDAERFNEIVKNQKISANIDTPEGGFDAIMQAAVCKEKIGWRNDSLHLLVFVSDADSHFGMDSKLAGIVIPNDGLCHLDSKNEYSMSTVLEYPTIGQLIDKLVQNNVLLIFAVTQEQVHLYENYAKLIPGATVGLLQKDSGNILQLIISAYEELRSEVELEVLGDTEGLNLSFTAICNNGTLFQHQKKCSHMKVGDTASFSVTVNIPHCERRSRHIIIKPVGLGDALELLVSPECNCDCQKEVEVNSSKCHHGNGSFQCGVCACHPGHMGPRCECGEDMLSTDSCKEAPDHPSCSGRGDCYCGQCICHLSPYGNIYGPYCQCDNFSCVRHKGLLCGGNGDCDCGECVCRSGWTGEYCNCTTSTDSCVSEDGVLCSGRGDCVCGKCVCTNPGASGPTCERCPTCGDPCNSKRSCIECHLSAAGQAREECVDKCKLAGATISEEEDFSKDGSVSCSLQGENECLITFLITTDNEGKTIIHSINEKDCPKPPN
Protocol: (§1) Binding in EDTA containing buffer defines cation-dependence because EDTA binds to Ca⁺⁺ and Mg′. Magnesium cation buffers contains 1 mM Ca⁺⁺ and 1 mM Mg⁺⁺. Here, the results are relative to anti-av, clone 11D12V2. All antibodies were coated on ELISA plates at 5 μg/ml.

[4] = biological target: T3, recombinant human integrin αvβ8 (human, UniProt P06756 31-992; P26012 43-684); test: as above
T3 construct: also called Human Integrin alpha V beta 8; purified recombinant αvβ8
T3 sequence (P06756 31-992 limits assumed, chain 1 of 2): as the sequence (P06756 31-992 limits assumed, chain 1 of 2) above
T3 sequence (P26012 43-684 limits assumed, chain 2 of 2): as the sequence (P26012 43-684 limits assumed, chain 2 of 2) above
Protocol: as §1

[5] = biological target: T2, recombinant human integrin αvβ6; test: cell-based or functional assay
[6] = biological target: T3, recombinant human integrin αvβ8; test: blocking of adhesion (A590) of Cho cells expressing GARP/LTGFB1 to immobilized αvβ8; antibody concentration varied; unit taken from the axis log[Agonist], (ug/ml)
Description: (§2) Here, Cho3.2.8.1 cells were transfected with GARP and LTGFB1.

[7] = biological target: T2, recombinant human integrin αvβ6; test: blocking of adhesion (A590) of Cho cells expressing GARP/LTGFB1 to immobilized αvβ6; antibody concentration varied; unit taken from the axis log[Agonist], (ug/ml)
Description: as §2

[8] = biological target: T2, recombinant human integrin αvβ6; test: competition of RGD3 with 3G9 for binding to αvβ6 (sheet title: modest cross-competition); y axis 'Relative Inhibition of avb6 binding to TGFb3 peptide'; signal falls from about 1.0 only to about 0.55 at log 4
[9] = biological target: T3, recombinant human integrin αvβ8; test: cell-based or functional assay
[10] = biological target: T4, recombinant human integrin αvβ1 (human, UniProt P05556 21-728); test: ELISA on coated recombinant human integrin; 0 = no apparent binding
T4 construct: Bought; also called αvβ1 (R&D systems)
T4 sequence (chain, as listed by the source limits assumed, chain 1 of 2): as the sequence (P06756 31-992 limits assumed, chain 1 of 2) above
T4 sequence (P05556 21-728 limits assumed, chain 2 of 2): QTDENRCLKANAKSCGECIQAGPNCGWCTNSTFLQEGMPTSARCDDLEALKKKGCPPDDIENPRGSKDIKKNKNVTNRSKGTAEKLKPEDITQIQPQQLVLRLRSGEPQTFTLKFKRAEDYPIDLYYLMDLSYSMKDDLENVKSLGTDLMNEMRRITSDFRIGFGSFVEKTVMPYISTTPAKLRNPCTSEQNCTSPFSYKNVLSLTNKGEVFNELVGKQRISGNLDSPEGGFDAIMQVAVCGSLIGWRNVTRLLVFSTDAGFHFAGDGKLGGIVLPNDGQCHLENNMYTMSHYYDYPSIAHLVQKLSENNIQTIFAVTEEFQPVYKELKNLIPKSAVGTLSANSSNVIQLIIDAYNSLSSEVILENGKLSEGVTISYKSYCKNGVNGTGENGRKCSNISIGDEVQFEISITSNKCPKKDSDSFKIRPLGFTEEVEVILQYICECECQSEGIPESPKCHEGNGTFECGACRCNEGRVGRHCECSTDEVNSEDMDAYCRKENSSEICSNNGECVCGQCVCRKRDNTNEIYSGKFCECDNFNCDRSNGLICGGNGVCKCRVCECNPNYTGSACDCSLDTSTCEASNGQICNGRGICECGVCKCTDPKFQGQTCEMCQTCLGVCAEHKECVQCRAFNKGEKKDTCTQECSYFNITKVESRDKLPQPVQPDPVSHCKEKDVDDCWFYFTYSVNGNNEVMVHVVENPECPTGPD
Description: (§3) Binding was quantified by intensity as 0-4 (0 representing no apparent binding; 4 representing robust binding) and results normalized to expression.

[11] = biological target: T5, recombinant human integrin αvβ5 (human, UniProt P18084 24-719); test: as above
T5 construct: Bought; also called αvβ5 (R&D systems)
T5 sequence (chain, as listed by the source limits assumed, chain 1 of 2): as the sequence (P06756 31-992 limits assumed, chain 1 of 2) above
T5 sequence (P18084 24-719 limits assumed, chain 2 of 2): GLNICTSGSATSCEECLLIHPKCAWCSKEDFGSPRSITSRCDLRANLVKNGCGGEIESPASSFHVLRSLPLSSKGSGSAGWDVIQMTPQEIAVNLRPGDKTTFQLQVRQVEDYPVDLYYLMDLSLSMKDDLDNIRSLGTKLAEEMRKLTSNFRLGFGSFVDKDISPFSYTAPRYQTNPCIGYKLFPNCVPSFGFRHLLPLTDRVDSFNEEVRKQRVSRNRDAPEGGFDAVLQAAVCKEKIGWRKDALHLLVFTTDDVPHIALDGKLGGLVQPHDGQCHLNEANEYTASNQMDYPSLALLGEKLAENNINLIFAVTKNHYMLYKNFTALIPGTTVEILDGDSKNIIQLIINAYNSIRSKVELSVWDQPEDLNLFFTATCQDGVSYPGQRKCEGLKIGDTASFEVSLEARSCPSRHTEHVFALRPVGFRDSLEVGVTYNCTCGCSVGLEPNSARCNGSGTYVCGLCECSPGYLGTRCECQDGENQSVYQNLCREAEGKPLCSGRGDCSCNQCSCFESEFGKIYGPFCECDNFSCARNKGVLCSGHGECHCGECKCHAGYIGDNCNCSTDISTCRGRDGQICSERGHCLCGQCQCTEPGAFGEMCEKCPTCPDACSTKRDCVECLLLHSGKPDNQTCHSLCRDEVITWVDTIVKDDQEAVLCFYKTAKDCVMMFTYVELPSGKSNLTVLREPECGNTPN
Description: as §3

[12] = biological target: T6, recombinant human integrin αvβ3 (human, UniProt P05106 27-718); test: as above
T6 construct: Bought; also called αvβ3 (R&D systems)
T6 sequence (chain, as listed by the source limits assumed, chain 1 of 2): as the sequence (P06756 31-992 limits assumed, chain 1 of 2) above
T6 sequence (P05106 27-718 limits assumed, chain 2 of 2): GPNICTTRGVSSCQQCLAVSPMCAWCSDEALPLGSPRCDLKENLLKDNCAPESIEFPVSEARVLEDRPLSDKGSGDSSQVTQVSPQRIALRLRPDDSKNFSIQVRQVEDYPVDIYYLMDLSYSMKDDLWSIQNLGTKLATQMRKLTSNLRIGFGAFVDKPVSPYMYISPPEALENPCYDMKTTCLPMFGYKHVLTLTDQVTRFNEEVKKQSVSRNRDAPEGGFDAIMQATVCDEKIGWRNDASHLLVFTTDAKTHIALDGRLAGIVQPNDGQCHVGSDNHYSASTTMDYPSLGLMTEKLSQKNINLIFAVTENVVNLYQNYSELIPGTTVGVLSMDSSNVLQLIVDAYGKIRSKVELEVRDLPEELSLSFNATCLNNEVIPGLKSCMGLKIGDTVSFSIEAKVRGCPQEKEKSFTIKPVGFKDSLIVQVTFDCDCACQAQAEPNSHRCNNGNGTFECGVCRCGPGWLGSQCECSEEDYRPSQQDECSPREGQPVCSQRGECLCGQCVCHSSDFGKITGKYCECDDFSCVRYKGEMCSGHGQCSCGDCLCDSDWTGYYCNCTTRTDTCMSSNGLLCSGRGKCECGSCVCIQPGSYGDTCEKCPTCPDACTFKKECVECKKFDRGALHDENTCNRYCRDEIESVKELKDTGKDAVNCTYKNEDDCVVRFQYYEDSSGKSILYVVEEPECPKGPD
Description: as §3

[13] = biological target: T3, recombinant human integrin αvβ8; test: ELISA: integrin coated on plate, supernatant of transfected 293 cells at 1/10 dilution, anti-mouse IgG-HRP; score normalized to expression;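 note: scale runs from 0 (no apparent binding) to 4 (robust binding), with scores adjusted for clone protein expression as determined by a murine IgG ELISA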
Description: as §3

[14] = biological target: T4, recombinant human integrin αvβ1; test: ELISA, integrin coated, rabbit IgG detected with anti-rabbit HRP; relative to anti-αv (8B8) control wells
Protocol: (§4) All integrins were coated on ELISA plates at 2 mg/ml, blocked with BSA, and antibodies were allowed to bind.

[15] = biological target: T5, recombinant human integrin αvβ5; test: as above
Protocol: as §4

[16] = biological target: T6, recombinant human integrin αvβ3; test: as above
Protocol: as §4

[17] = biological target: T7, truncated secreted form of αvβ8 fused in frame to alkaline phosphatase; test: ELISA: inhibition of binding of secreted αvβ8-alkaline phosphatase to coated TGF-β3 RGD peptide (1 µg/ml), OD405; fitted value in the table under the graph; unit from the axis and paragraph 229
T7 construct: Printed: truncated secreted form; also called alkaline phosphatase (AP) αvβ8 fusion protein; secreted αvβ8
T7 sequence (P06756 31-992, chain 1 of 2): as the sequence (P06756 31-992 limits assumed, chain 1 of 2) above
T7 sequence (P26012 43-684, chain 2 of 2, further chain): as the sequence (P26012 43-684 limits assumed, chain 2 of 2) above

[18] = biological target: T2, recombinant human integrin αvβ6; test: ELISA, Mab coated at 5 ug/ml, αvβ6 receptor 0.5 µg/ml, detected with biotinylated anti-αv 8B8; percent of binding to anti-αv clone 11D12V2
Protocol: as §1

[19] = biological target: T3, recombinant human integrin αvβ8; test: Kinetic Exclusion Assay (KinExA), C6D4 as murine IgG2a
[20] = biological target: T2, recombinant human integrin αvβ6; test: ELISA, integrin coated, rabbit IgG detected with anti-rabbit HRP; relative to anti-αv (8B8) control wells
Protocol: as §4

[21] = biological target: T2, recombinant human integrin αvβ6; test: ELISA on coated recombinant human integrin; 0 = no apparent binding
Description: as §3

[22] = biological target: T3, recombinant human integrin αvβ8; test: scFv yeast display selection from random mutation libraries of clones 29 and 44

B1: TGF-β3 RGD multiple antigen presenting peptide DDHGRGDLGRLK (peptide)
peptide: DDHGRGDLGRLK
modifications: also: multiple antigen presenting peptide on 8-lysine core (branched)
notes: Branched peptide on a lysine core; also called L-TGF-b3 peptide; TGFb3 peptide
binding result [1]: binds

B2: Humanized C6D4-RGD3 (HuC6D4-RGD3) (antibody, V domains shown)
VH: QIQLVQSGAEVKKPGASVKISCKASGYTFTDYSMHWVRQAPGQGLEWVARINTETGEPTFADDFRGRFTVTLDTSTSTAYLEIRSLRSDDTAVYFCAIFYYGRDTWGQGTTLTVSS
VL: EIVMTQSPATLSVSPGERVTMSCKSSQSLLGRGDLGRLKKNALAWYQQKPGQAPRLLIYWASTRESGVPARFSGSGSGTEFTLTISSVQSEDFAVYYCKQSYNLLSFGQGTVLEIKR
notes: Frameworks and CH1 are human; hinge and CH2-3 are mouse; also called humanized RGD3
binding result [2]: binds

B3: C6D4-RGD3 (antibody, V domains shown)
VH: QIQLLQSGPELKKPGETVKISCKASGYTFTDYSMHWVKQAPGKGLKWVARINTETGEPTFADDFRGRFAVSLETSASTAYLQINNLKNEDTATYFCAIFYYGRDSWGQGTTLTVSS
VL: DIVMTQSPSSLAVSAGEKVTMSCKSSQSLLGRGDLGRLKKNALAWYQQKPGQSPRLLIYWASTRESGVPDRFTGSGSGTDFTLTISSVQAEDLAVYYCKQSYNLLSFGAGTKLELKR
notes: also called CD64-RGD3; C6 / RGD3
Binding in Mg buffer relative to clone 68 (% compared with binding to anti-av clone 11D12V2) [3]: 120%
Binding in Mg buffer relative to clone 68 (% compared with binding to anti-av clone 11D12V2) [4]: 98%
EC50 of inhibition of TGF-β activation (TMLC luciferase reporter) of GARP/LTGFB1 Cho cells on immobilized αvβ6; unit from the axis [5]: 0.412 µg/mL
EC50 [6]: 1.19 µg/mL
EC50 [7]: 0.479 µg/mL
LogEC50 [8]: 3.78 Log10 (ng/ml)
EC50 of inhibition of TGF-β activation (TMLC luciferase reporter) of GARP/LTGFB1 Cho cells on immobilized αvβ8; unit from the axis [9]: 0.854 µg/mL
binding result [10]: no binding (tested: supernatant at 1/10 dilution)
binding result [11]: no binding (tested: supernatant at 1/10 dilution)
binding result [12]: no binding (tested: supernatant at 1/10 dilution)
binding intensity score (0-4) [13]: 4 score 0-4

B4: C6D4-RGD3 as rabbit IgG (C6VH expressed with the RGD3 mutant Vk) (antibody, V domains shown)
VH: QIQLLQSGPELKKPGETVKISCKASGYTFTDYSMHWVKQAPGKGLKWVARINTETGEPTFADDFRGRFAVSLETSASTAYLQINNLKNEDTATYFCAIFYYGRDSWGQGTTLTVSS
VL: DIVMTQSPSSLAVSAGEKVTMSCKSSQSLLGRGDLGRLKKNALAWYQQKPGQSPRLLIYWASTRESGVPDRFTGSGSGTDFTLTISSVQAEDLAVYYCKQSYNLLSFGAGTKLELKR
notes: also called C6D4-RGD3 mutant
binding result [14]: no binding
binding result [15]: no binding
binding result [16]: no binding

B5: C6D4 (composite antibody of C6 VH and D4 VK; murine IgG2a) (antibody, V domains shown)
VH: QIQLLQSGPELKKPGETVKISCKASGYTFTDYSMHWVKQAPGKGLKWVARINTETGEPTFADDFRGRFAVSLETSASTAYLQINNLKNEDTATYFCAIFYYGRDSWGQGTTLTVSS
VL: DIVMTQSPSSLAVSAGEKVTMSCKSSQSLLNSRTRKNYLAWYQQKPGQSPRLLIYWASTRESGVPDRFTGSGSGTDFTLTISSVQAEDLAVYYCKQSYNLLSFGAGTKLELKR
notes: also called C6D4 murine IgG2a; Mab C6D4
Binding in Mg buffer relative to clone 68 (% compared with binding to anti-av clone 11D12V2) [4]: 103%
IC50 [17]: 0.494 µg/mL
binding result [18]: no binding (tested: 5 ug/ml (coated Mab))
EC50 [6]: 1.2 µg/mL
Kd [19]: 832 pM
EC50 of inhibition of TGF-β activation (TMLC luciferase reporter) of GARP/LTGFB1 Cho cells on immobilized αvβ8; unit from the axis [9]: 1.04 µg/mL
binding result [10]: no binding (tested: supernatant at 1/10 dilution)
binding result [11]: no binding (tested: supernatant at 1/10 dilution)
binding result [12]: no binding (tested: supernatant at 1/10 dilution)
binding intensity score (0-4) [13]: 4 score 0-4

B6: C6D4 as rabbit IgG (C6VH expressed with D4 Vk) (antibody, V domains shown)
VH: QIQLLQSGPELKKPGETVKISCKASGYTFTDYSMHWVKQAPGKGLKWVARINTETGEPTFADDFRGRFAVSLETSASTAYLQINNLKNEDTATYFCAIFYYGRDSWGQGTTLTVSS
VL: DIVMTQSPSSLAVSAGEKVTMSCKSSQSLLNSRTRKNYLAWYQQKPGQSPRLLIYWASTRESGVPDRFTGSGSGTDFTLTISSVQAEDLAVYYCKQSYNLLSFGAGTKLELKR
notes: also called wildtype C6D4
binding result [20]: no binding
binding result [15]: no binding
binding result [16]: no binding

B7: C6 VH / RGD1 Vk murine IgG (antibody, V domains shown)
VH: QIQLLQSGPELKKPGETVKISCKASGYTFTDYSMHWVKQAPGKGLKWVARINTETGEPTFADDFRGRFAVSLETSASTAYLQINNLKNEDTATYFCAIFYYGRDSWGQGTTLTVSS
VL: DIVMTQSPSSLAVSAGEKVTMSCKSSQSLLGRGDLGNALAWYQQKPGQSPRLLIYWASTRESGVPDRFTGSGSGTDFTLTISSVQAEDLAVYYCKQSYNLLSFGAGTKLELKR
notes: Murine IgG, supernatant of 293 cells; CDRL1 swap into the C6D4 murine IgG vector, VH not altered; also called C6D4-RGD1; C6RGD1
binding result [21]: no binding (tested: supernatant at 1/10 dilution)
binding result [10]: no binding (tested: supernatant at 1/10 dilution)
binding result [11]: no binding (tested: supernatant at 1/10 dilution)
binding result [12]: no binding (tested: supernatant at 1/10 dilution)
binding intensity score (0-4) [13]: 1 score 0-4

B8: clone C6 (scFv, yeast display) (scFv, V domains shown)
VH: QIQLLQSGPELKKPGETVKISCKASGYTFTDYSMHWVKQAPGKGLKWVARINTETGEPTFADDFRGRFAVSLETSASTAYLQINNLKNEDTATYFCAIFYYGRDSWGQGTALTVSS
VL: DIVMSQSPSSLAVSAGEKVTMSCKSSQSLLNSRTRKNYLAWYQQKPGQSPRLLIYWASTRESGVPDRFTGSGSGTDFTLTISSVQAEDLAVYYCKQSYNLLTFGAGTKLELKA
notes: scFv on yeast; also called A5=C6
binding result [22]: binds

B9: C6 VH / RGD2 Vk murine IgG (antibody, V domains shown)
VH: QIQLLQSGPELKKPGETVKISCKASGYTFTDYSMHWVKQAPGKGLKWVARINTETGEPTFADDFRGRFAVSLETSASTAYLQINNLKNEDTATYFCAIFYYGRDSWGQGTTLTVSS
VL: DIVMTQSPSSLAVSAGEKVTMSCKSSQSLLNSGRGDLGNALAWYQQKPGQSPRLLIYWASTRESGVPDRFTGSGSGTDFTLTISSVQAEDLAVYYCKQSYNLLSFGAGTKLELKR
notes: Murine IgG, supernatant of 293 cells; CDRL1 of the C6D4 murine IgG vector replaced by the printed loop, VH not altered; also called C6D4-RGD2; C6RGD2
binding result [21]: no binding (tested: supernatant at 1/10 dilution)
binding result [10]: no binding (tested: supernatant at 1/10 dilution)
binding result [11]: no binding (tested: supernatant at 1/10 dilution)
binding result [12]: no binding (tested: supernatant at 1/10 dilution)
binding intensity score (0-4) [13]: 2 score 0-4
